# From publication PMC5760450, “FzlA, an essential regulator of FtsZ filament curvature, controls constriction rate during Caulobacter division” (Molecular Microbiology, 2017)
# Like-named read-outs stand apart in the source and are kept apart here.
# T1: FtsZ (purified, C. crescentus) (Caulobacter crescentus, UniProt B8H080 1-508)
# T1 sequence (looked up): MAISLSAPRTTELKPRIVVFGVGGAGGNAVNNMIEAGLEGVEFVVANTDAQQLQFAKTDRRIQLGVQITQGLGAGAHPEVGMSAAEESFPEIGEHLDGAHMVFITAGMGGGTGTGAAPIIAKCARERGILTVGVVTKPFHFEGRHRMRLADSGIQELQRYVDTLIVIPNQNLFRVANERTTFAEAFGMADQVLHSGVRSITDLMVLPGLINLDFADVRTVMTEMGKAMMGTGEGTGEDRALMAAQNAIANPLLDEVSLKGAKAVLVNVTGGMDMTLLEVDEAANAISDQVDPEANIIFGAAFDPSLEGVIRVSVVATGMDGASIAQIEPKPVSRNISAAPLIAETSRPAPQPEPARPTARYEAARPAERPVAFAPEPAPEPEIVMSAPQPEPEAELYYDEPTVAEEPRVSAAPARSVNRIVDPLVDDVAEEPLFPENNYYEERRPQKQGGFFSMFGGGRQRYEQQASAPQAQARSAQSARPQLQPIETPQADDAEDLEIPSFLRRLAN
# Experiments:
# [1] = biological target: T1, FtsZ (purified, C. crescentus)
# [2] = biological target: T1, FtsZ (purified, C. crescentus); assay: co-sedimentation; high speed co-pelleting: 4 µM FzlA variant ± 2 µM FtsZ, 50 mM MES pH 6.5, 50 mM KCl, 10 mM MgCl2, 2 mM GTP, 0.05% Triton X-100, 15 min room temperature, 280 000 x g 15 min 25°C; Coomassie gel quantified; conditions: both partners purified
# [3] = biological target: T1, FtsZ (purified, C. crescentus); assay: co-sedimentation; low speed co-pelleting (higher order structures): 4 µM FzlA variant ± 2 µM FtsZ, 50 mM MES pH 6.5, 50 mM KCl, 2.5 mM MgCl2, 2 mM GTP, 16 000 x g 15 min room temperature; conditions: both partners purified
# [4] = biological target: T1, FtsZ (purified, C. crescentus); assay: cell-based or functional assay
% of FtsZ GTPase rate [1] [%],"fold change of FzlA in pellet (with FtsZ vs. alone), high speed [2] [fold]","fold change of FzlA in pellet (with FtsZ vs. alone), low speed [3] [fold]",% of FtsZ GTPase rate [4] [%],Molecule
85.5,–,–,–,FzlA^WB1 (D109R E122K) (from UniProt A0A0H3CDY2 1-228) (natural protein)
–,9.85,9.86,55.7,"FzlA^UN1 (P131A) (natural protein, Caulobacter crescentus, FzlA, Caulobacter crescentus, with P131A; also called unknown nonessential activity; source: E. coli Rosetta (DE3) pLysS, purified (HisTrap, His6-SUMO cleaved)) MSVERTLHHFPLDPASRQVRLALGEKRLPFVEMQVRYWEMPPEFTSLNPSGMPPVLVETKHQRNLVICETRAILEHIEETETEPPLLGRDPAERAEARRLLQWFDRKFDNEVNGFLLHEKMEKRLLRMGAADLAALRQGREALRMHLGYIESLLQTRDWLAGRRMSLADFAAAAHLSVIDYFGDVPWKDFQAAKTWYMKLKSRPCFRPILADRWPGLAPAAHYDDLDF"
–,59,12.3,42.6,"FzlA^UE2 (D227K) (natural protein, Caulobacter crescentus, FzlA, Caulobacter crescentus, with D227K; also called unknown essential activity; source: E. coli Rosetta (DE3) pLysS, purified (HisTrap, His6-SUMO cleaved)) MSVERTLHHFPLDPASRQVRLALGEKRLPFVEMQVRYWEMPPEFTSLNPSGMPPVLVETKHQRNLVICETRAILEHIEETETEPPLLGRDPAERAEARRLLQWFDRKFDNEVNGFLLHEKMEKRLLRMGAPDLAALRQGREALRMHLGYIESLLQTRDWLAGRRMSLADFAAAAHLSVIDYFGDVPWKDFQAAKTWYMKLKSRPCFRPILADRWPGLAPAAHYDDLKF"
–,2.34,–,86.2,"FzlA^NH1 (P131A L136A R137E) (natural protein, Caulobacter crescentus, FzlA, Caulobacter crescentus, with P131A L136A R137E; also called no helices; source: E. coli Rosetta (DE3) pLysS, purified (HisTrap, His6-SUMO cleaved)) MSVERTLHHFPLDPASRQVRLALGEKRLPFVEMQVRYWEMPPEFTSLNPSGMPPVLVETKHQRNLVICETRAILEHIEETETEPPLLGRDPAERAEARRLLQWFDRKFDNEVNGFLLHEKMEKRLLRMGAADLAAAEQGREALRMHLGYIESLLQTRDWLAGRRMSLADFAAAAHLSVIDYFGDVPWKDFQAAKTWYMKLKSRPCFRPILADRWPGLAPAAHYDDLDF"
–,1.24,1.18,98.9,"FzlA^NB2 (E119K) (natural protein, Caulobacter crescentus, FzlA, Caulobacter crescentus, with E119K; source: E. coli Rosetta (DE3) pLysS, purified (HisTrap, His6-SUMO cleaved)) MSVERTLHHFPLDPASRQVRLALGEKRLPFVEMQVRYWEMPPEFTSLNPSGMPPVLVETKHQRNLVICETRAILEHIEETETEPPLLGRDPAERAEARRLLQWFDRKFDNEVNGFLLHKKMEKRLLRMGAPDLAALRQGREALRMHLGYIESLLQTRDWLAGRRMSLADFAAAAHLSVIDYFGDVPWKDFQAAKTWYMKLKSRPCFRPILADRWPGLAPAAHYDDLDF"
–,3.51,–,89,"FzlA^NH3 (R144D) (natural protein, Caulobacter crescentus, FzlA, Caulobacter crescentus, with R144D; also called no helices; source: E. coli Rosetta (DE3) pLysS, purified (HisTrap, His6-SUMO cleaved)) MSVERTLHHFPLDPASRQVRLALGEKRLPFVEMQVRYWEMPPEFTSLNPSGMPPVLVETKHQRNLVICETRAILEHIEETETEPPLLGRDPAERAEARRLLQWFDRKFDNEVNGFLLHEKMEKRLLRMGAPDLAALRQGREALDMHLGYIESLLQTRDWLAGRRMSLADFAAAAHLSVIDYFGDVPWKDFQAAKTWYMKLKSRPCFRPILADRWPGLAPAAHYDDLDF"

# Continued, molecule first:
Molecule,% of FtsZ GTPase rate [1] [%],"fold change of FzlA in pellet (with FtsZ vs. alone), high speed [2] [fold]","fold change of FzlA in pellet (with FtsZ vs. alone), low speed [3] [fold]",% of FtsZ GTPase rate [4] [%]
"untagged WT FzlA (natural protein, Caulobacter crescentus, FzlA, Caulobacter crescentus; source: E. coli Rosetta (DE3) pLysS, purified (HisTrap, His6-SUMO cleaved with His6-ULP, second HisTrap flow through)) MSVERTLHHFPLDPASRQVRLALGEKRLPFVEMQVRYWEMPPEFTSLNPSGMPPVLVETKHQRNLVICETRAILEHIEETETEPPLLGRDPAERAEARRLLQWFDRKFDNEVNGFLLHEKMEKRLLRMGAPDLAALRQGREALRMHLGYIESLLQTRDWLAGRRMSLADFAAAAHLSVIDYFGDVPWKDFQAAKTWYMKLKSRPCFRPILADRWPGLAPAAHYDDLDF",–,20.4,11.1,–
"FzlA^NB1 (W38A R124D) (natural protein, Caulobacter crescentus, FzlA, Caulobacter crescentus, with W38A R124D; Self-aggregates under the standard conditions (pH 6.5, 2:1 FzlA:FtsZ); source: E. coli Rosetta (DE3) pLysS, purified (HisTrap, His6-SUMO cleaved)) MSVERTLHHFPLDPASRQVRLALGEKRLPFVEMQVRYAEMPPEFTSLNPSGMPPVLVETKHQRNLVICETRAILEHIEETETEPPLLGRDPAERAEARRLLQWFDRKFDNEVNGFLLHEKMEKDLLRMGAPDLAALRQGREALRMHLGYIESLLQTRDWLAGRRMSLADFAAAAHLSVIDYFGDVPWKDFQAAKTWYMKLKSRPCFRPILADRWPGLAPAAHYDDLDF",–,0.91,1.25,96.3
"FzlA^UE1 (Y223A D227K F228A) (natural protein, Caulobacter crescentus, FzlA, Caulobacter crescentus, with Y223A D227K F228A; also called unknown essential activity; source: E. coli Rosetta (DE3) pLysS, purified (HisTrap, His6-SUMO cleaved)) MSVERTLHHFPLDPASRQVRLALGEKRLPFVEMQVRYWEMPPEFTSLNPSGMPPVLVETKHQRNLVICETRAILEHIEETETEPPLLGRDPAERAEARRLLQWFDRKFDNEVNGFLLHEKMEKRLLRMGAPDLAALRQGREALRMHLGYIESLLQTRDWLAGRRMSLADFAAAAHLSVIDYFGDVPWKDFQAAKTWYMKLKSRPCFRPILADRWPGLAPAAHADDLKA",–,5.85,6.1,77.3
"FzlA^NH2 (R140D E141K) (natural protein, Caulobacter crescentus, FzlA, Caulobacter crescentus, with R140D E141K; also called no helices; source: E. coli Rosetta (DE3) pLysS, purified (HisTrap, His6-SUMO cleaved)) MSVERTLHHFPLDPASRQVRLALGEKRLPFVEMQVRYWEMPPEFTSLNPSGMPPVLVETKHQRNLVICETRAILEHIEETETEPPLLGRDPAERAEARRLLQWFDRKFDNEVNGFLLHEKMEKRLLRMGAPDLAALRQGDKALRMHLGYIESLLQTRDWLAGRRMSLADFAAAAHLSVIDYFGDVPWKDFQAAKTWYMKLKSRPCFRPILADRWPGLAPAAHYDDLDF",–,7.21,–,85
